The target in one experiment is DIAPH1 (Homo sapiens) (UniProt O60610). The experiment is described as follows: BLI. The conditions noted are these: cited from earlier work.
The target of another experiment is GST-IQGAP1-DBR (human) (UniProt P46940). In words: BLI; Octet RED96; GST-tagged ligands on GST biosensors; analyte 0.5 nM to 5 μM; PBS, 0.002% Tween-20, 0.1 mg/ml BSA; 30 °C; one site-specific binding, saturation curve.
A further experiment deals with T1, His6-DIAPH1-NT (human, UniProt O60610 1-575).
T1 construct: human DIAPH1, N-terminal fragment, residues 1-575 of the 1272-residue protein; plasmid pET30a-DIAPH1-NT(1-575aa); Plasmid was a gift from J. Copeland; also called N-terminal fragment of DIAPH1; DIAPH1 N-terminal regulatory domains; source: E. coli BL21, purified (nickel-Sepharose)
In words: pull-down; 0.05 nmol GST-IQGAP1-DBR immobilised on GST beads, first partner equimolar 1 h, then second partner equimolar 1 h; 25 mM HEPES pH 7.5, 250 mM NaCl, 100 mM KCl, 0.5 mM beta-mercaptoethanol, 1 mM PMSF, 0.1% Triton X-100; 4 °C; anti-His6 and anti-MBP blots. The following applies: both partners purified.

The target of experiment [1] is T2, MBP-CLIP170-NT (human).
T2 chain: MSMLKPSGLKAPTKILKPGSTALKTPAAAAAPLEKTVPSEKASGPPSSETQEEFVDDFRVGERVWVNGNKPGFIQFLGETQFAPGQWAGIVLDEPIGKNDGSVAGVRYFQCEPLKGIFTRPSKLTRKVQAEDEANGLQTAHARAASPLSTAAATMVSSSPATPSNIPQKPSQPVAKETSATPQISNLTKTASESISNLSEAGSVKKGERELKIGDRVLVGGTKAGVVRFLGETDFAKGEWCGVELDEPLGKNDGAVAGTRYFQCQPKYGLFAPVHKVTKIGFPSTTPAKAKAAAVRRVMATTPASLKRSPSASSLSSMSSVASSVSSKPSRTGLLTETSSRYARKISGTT
In words: BLI; individual test 1. In general terms: Biolayer interferometry detects binding as a change in optical thickness at a sensor tip.

For experiment [2], the target named is T2, MBP-CLIP170-NT. In words: BLI; individual test 2.

Sequence of DIAPH1 (Homo sapiens) (O60610 whole entry): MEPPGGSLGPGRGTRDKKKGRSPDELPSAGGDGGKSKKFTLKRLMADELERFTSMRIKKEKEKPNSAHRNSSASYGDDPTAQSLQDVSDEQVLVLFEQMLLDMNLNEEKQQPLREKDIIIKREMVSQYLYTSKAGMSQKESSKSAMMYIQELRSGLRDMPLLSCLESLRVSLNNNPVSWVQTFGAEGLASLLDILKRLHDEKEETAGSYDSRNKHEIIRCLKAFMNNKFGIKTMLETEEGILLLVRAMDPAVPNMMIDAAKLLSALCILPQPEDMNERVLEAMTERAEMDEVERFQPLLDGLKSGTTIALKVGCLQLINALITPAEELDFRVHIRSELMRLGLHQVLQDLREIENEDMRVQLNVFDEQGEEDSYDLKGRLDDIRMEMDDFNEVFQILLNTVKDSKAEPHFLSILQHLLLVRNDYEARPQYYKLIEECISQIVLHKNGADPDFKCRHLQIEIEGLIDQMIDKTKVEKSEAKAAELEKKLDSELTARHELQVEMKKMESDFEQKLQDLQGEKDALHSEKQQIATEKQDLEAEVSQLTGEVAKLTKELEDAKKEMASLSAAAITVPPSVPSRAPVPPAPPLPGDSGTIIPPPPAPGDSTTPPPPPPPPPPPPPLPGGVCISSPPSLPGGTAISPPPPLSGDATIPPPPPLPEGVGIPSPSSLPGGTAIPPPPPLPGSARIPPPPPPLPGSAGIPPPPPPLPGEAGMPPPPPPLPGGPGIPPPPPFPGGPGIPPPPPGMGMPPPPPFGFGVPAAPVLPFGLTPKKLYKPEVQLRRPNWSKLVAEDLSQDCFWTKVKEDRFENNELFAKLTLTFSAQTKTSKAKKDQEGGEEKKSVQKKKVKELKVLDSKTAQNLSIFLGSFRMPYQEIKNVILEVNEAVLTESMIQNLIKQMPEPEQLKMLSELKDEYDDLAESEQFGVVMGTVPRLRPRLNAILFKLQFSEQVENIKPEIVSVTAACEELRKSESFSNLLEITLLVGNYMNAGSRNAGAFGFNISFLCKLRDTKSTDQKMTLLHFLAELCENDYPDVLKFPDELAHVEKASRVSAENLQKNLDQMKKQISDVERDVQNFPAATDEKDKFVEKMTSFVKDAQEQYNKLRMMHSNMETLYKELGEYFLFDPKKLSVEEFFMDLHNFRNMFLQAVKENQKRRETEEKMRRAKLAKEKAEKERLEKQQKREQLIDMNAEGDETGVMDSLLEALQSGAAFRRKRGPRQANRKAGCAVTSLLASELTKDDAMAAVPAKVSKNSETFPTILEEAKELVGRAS
T1 sequence (O60610 1-575): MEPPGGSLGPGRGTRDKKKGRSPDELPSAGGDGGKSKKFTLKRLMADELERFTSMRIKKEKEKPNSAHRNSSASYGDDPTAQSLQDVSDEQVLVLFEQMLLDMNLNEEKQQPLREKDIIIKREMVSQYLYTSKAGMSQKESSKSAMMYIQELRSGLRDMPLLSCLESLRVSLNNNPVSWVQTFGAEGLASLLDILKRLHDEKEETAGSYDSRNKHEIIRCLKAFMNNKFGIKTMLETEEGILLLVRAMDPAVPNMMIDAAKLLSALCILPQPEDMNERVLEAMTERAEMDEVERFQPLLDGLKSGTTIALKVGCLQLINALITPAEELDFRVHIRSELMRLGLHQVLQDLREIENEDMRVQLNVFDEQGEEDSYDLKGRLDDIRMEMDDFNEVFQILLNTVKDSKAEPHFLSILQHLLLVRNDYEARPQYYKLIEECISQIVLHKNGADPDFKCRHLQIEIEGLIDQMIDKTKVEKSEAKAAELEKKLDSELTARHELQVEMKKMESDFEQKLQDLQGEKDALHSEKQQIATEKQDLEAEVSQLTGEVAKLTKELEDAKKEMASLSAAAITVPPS

In the case of IQGAP1 (from UniProt P46940), the equilibrium dissociation constant (Kd) with DIAPH1 (Homo sapiens) was 81.2 nM. Take MBP-CLIP170-NT (domain or fragment): the Kd in the experiment with GST-IQGAP1-DBR (human) is 20.5 nM.

B1: GST-IQGAP1-DBR (domain or fragment, human, UniProt P46940 1500-1657, looked up)
chain: KAELVKLQQTYAALNSKATFYGEQVDYYKSYIKTCLDNLASKGKVSKKPREMKGKKSKKISLKYTAARLHEKGVLLEIEDLQVNQFKNVIFEISPTEEVGDFEVKAKFMGVQMETFMLHYQDLLQLQYEGVAVMKLFDRAKVNVNLLIFLLNKKFYGK
notes: cloned into pDEST15; also called IQGAP-DBR; source: E. coli BL21, purified (glutathione beads)
Consider B1, for which the binding result in the experiment with His6-DIAPH1-NT was “binds”. Besides, the Kd with MBP-CLIP170-NT [1] is 24.1 nM; in the experiment with MBP-CLIP170-NT [2], 15.6 nM.

A word on the Kd: it is the equilibrium constant for the complex coming apart.
